Data taken from doi:10.1101/2024.07.25.605091.
Where two headings read alike, the source gives them in different places.

Assays:
[1] = target: Macaca mulatta TLR7 extracellular domain (Macaca mulatta); test: cryo-EM structure
[2] = target: Macaca mulatta TLR7 extracellular domain (Macaca mulatta); test: cryo-EM structure; remark: listed apart in the source
[3] = target: T1, TLR8 extracellular domain (Homo sapiens, UniProt Q9NR97 27-827); test: SPR
T1 sequence: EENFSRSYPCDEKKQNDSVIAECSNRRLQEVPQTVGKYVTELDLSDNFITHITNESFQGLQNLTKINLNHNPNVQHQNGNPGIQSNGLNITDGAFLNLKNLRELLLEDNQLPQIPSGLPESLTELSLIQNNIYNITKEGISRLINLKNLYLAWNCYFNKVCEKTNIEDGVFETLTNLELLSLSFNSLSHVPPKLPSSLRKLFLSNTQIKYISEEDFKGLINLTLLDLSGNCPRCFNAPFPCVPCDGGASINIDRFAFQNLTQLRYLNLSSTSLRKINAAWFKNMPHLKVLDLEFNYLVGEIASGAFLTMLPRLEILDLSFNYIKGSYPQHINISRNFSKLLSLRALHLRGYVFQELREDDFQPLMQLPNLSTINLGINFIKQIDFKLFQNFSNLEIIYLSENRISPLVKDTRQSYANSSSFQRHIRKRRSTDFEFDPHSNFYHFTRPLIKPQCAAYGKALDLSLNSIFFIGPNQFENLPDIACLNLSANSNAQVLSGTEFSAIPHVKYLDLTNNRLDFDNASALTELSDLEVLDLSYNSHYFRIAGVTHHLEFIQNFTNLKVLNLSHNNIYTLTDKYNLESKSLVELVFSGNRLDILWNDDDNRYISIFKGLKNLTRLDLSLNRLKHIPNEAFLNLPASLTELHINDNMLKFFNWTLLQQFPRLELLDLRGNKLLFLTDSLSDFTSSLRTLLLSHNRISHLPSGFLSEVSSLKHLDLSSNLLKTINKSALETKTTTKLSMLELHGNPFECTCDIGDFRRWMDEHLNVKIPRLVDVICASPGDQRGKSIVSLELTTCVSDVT

[4] = target: T1, TLR8 extracellular domain; test: SPR; remark: listed apart in the source

For “Macaca mulatta TLR7 extracellular domain (receptor)”, the stoichiometry N [1] was 2 and the stoichiometry N [2] was 2.

GCC (XNA, 2'-OMe at G1; DNA C2 and C3; phosphorothioate linkages, stereorandom) [GCC-v4 (mGdCdC)] gave a Kd [3] of 8 µM.

With GAG (XNA, 2'-OMe at G1 and A2; DNA G3; phosphorothioate linkages, stereorandom) [GAG-v1 (mGmAdG)] the Kd [4] was 4 µM.
